Measurements reported in US5622828, “High-affinity oligonucleotide ligands to secretory phospholipase A2 (sPLA2)” (Nexstar Pharmaceuticals, Inc.).
Positions count from the first letter of the chain named. Where two headings read alike, the source gives them in different places.

Experiments:
[1] = biological target: T1, secretory phospholipase A2 (sPLA2) (Homo sapiens, UniProt P14555 P14555:21-144); assay: filter; biphasic, Kd2 82 nM, mole fraction 0.50; TBSC, 37 C; conditions: tags: supplied by Eli Lilly
T1 sequence: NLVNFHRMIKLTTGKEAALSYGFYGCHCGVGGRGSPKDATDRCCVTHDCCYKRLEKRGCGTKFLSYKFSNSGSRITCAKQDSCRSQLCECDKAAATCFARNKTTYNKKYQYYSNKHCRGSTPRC
Description: (§1) The nitrocellulose filter partitioning method was used as described in SELEX Patent Applications to determine the affinity of RNA ligands for sPLA_2 and for other promins. Filter discs (nitrocellulose/cellulose acetate mixed matrix, 0.45 µm pore size, Millipore) were placed on a vacuum manifold and washed with 5 ml of TBSC buffer under vacuum. Reaction mixtures, containing ^32P labeled RNA pools and sPLA_2, were incubated in TBSC for 5 minutes at 37° C., filtered, and then immediately washed with 5 ml TBSC. The filters were air-dried and counted in a Beckman liquid scintillation counter without fluor.
(§2) The dissociation constants for representative members of families I–VI, orphan and other ligands were determined by nitrocellulose filter binding experiments and are listed in Table III. Unlike random RNA, all tested ligands from the 2'OH SELEXes bound biphasically.

[2] = biological target: T1, secretory phospholipase A2 (sPLA2); assay: filter; biphasic, Kd2 140 nM, mole fraction 0.65; TBSC, 37 C; conditions: tags: supplied by Eli Lilly
Description: as §1, §2

[3] = biological target: pancreatic phospholipase A2 (bpPLA2) (Bos taurus, UniProt P00593 P00593:23-145); assay: filter; specificity control, like random RNA; TBSC
Chain of pancreatic phospholipase A2 (bpPLA2) (P00593 23-145, one chain of several): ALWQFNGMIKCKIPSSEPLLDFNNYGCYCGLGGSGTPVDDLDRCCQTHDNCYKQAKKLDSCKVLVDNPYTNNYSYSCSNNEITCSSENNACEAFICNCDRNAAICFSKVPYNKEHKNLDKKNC
Description: (§3) The affinity of sPLA_2 ligands 2, 72, 80, 87, NN19 and NN19.15 (SEQ ID NOs.:11, 20, 53, 54, 64, and 117, respectively) for proteins other than sPLA_2 was determined by nitrocellulose partitioning (Tables IV and V). Like sPLA_2, hen egg white lysozyme, bFGF and elastase are small, highly cationic proteins. Bovine pancreatic PLA_2 is an evolutionarily and structurally related enzyme. […] Specificity is particularly well illustrated by the affinities for bovine pancreatic PLA_2 which is 10^4-fold less than that for human sPLA_2.
(§4) *Standard binding experiments were performed to the specified target protein in TBSC and K_d's is calculated by curve fitting. The ligands bind no better than randomized RNA (30N1) to lysozyme (hen egg-white), human basic fibroblast growth factor basic (bFGF) and bovine pancreatic PLA₂. The sPLA₂ K_d that of the high affinity species.

[4] = biological target: T2, basic fibroblast growth factor (bFGF) (Homo sapiens, UniProt P09038 P09038:143-288); assay: filter; specificity control, like random RNA; TBSC
T2 sequence (P09038 143-288, one chain of several): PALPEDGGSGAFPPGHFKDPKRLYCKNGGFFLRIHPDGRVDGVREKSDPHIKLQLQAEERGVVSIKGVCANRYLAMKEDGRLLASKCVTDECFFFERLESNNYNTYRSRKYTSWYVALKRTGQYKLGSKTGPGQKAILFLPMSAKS
Description: as §3, §4

lysozyme (egg white) = lysozyme (egg white) (Gallus gallus, UniProt P00698 P00698:19-147); assay: filter; specificity control, like random RNA; TBSC; conditions: tags: 6x crystallized
Chain of lysozyme (egg white) (P00698 19-147, one chain of several): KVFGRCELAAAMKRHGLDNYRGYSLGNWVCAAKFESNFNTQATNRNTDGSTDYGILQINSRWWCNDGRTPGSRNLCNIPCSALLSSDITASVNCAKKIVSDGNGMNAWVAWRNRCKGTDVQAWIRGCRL
Description: as §3, §4

[5] = biological target: T1, secretory phospholipase A2 (sPLA2); assay: filter; biphasic, Kd2 270 nM, mole fraction 0.13; Table III prints SEQ 103, Table IV SEQ 20; TBSC, 37 C; conditions: tags: supplied by Eli Lilly
Description: as §1, §2

[6] = biological target: T1, secretory phospholipase A2 (sPLA2); assay: filter; biphasic, Kd2 92 nM, mole fraction 0.60; TBSC, 37 C; conditions: tags: supplied by Eli Lilly
Description: as §1, §2

[7] = biological target: T1, secretory phospholipase A2 (sPLA2); assay: filter; biphasic, Kd2 350 nM, mole fraction 0.70; TBSC, 37 C; conditions: tags: supplied by Eli Lilly
Description: as §1, §2

[8] = biological target: T1, secretory phospholipase A2 (sPLA2); assay: filter; biphasic, Kd2 240 nM, mole fraction 0.50; TBSC, 37 C; conditions: tags: supplied by Eli Lilly
Description: as §1, §2

[9] = biological target: T1, secretory phospholipase A2 (sPLA2); assay: filter; biphasic, Kd2 1320 nM, mole fraction 0.50; TBSC, 37 C; conditions: tags: supplied by Eli Lilly
Description: as §1, §2

[10] = biological target: T1, secretory phospholipase A2 (sPLA2); assay: filter; biphasic, Kd2 150 nM, mole fraction 0.2; conserved G replaced by U; TBSC, 37 C; conditions: tags: supplied by Eli Lilly; hairpin with asymmetric internal loop
Description: as §1, §2

[11] = biological target: T1, secretory phospholipase A2 (sPLA2); assay: filter; biphasic, Kd2 200 nM, mole fraction 0.20; calcium dependent; TBSC, 37 C; conditions: tags: supplied by Eli Lilly
Description: as §1, §2

[12] = biological target: T1, secretory phospholipase A2 (sPLA2); assay: filter; biphasic, Kd2 43 nM, mole fraction 0.25; TBSC, 37 C; conditions: tags: supplied by Eli Lilly
Description: as §1, §2

[13] = biological target: T2, basic fibroblast growth factor (bFGF); assay: filter; specificity control, like random RNA; TBSC; remark: listed apart in the source
Description: as §3
(§5) *Standard binding experiments were performed to the specified target protein in TBSC and K_d's calculated by curve fitting. The ligands bind no better than randomized RNA (30N1) to human neutrophil elastase, human basic fibroblast growth factor (bFGF), and human immunoglobulin G (IgG and C1q).

neutrophil elastase = neutrophil elastase (Homo sapiens, UniProt P08246 P08246:30-267); assay: filter; specificity control, like random RNA; TBSC
Chain of neutrophil elastase (P08246 30-267, one chain of several): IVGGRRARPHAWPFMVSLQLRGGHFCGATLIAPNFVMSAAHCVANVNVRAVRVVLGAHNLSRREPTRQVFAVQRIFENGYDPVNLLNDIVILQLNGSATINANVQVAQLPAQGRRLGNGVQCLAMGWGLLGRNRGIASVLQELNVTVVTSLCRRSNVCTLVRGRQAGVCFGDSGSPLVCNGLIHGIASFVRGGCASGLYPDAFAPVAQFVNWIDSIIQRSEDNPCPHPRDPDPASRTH
Description: as §3, §5

[14] = biological target: T1, secretory phospholipase A2 (sPLA2); assay: filter; monophasic; Table V prints 1 nM; TBSC, 37 C; conditions: tags: supplied by Eli Lilly; hairpin with asymmetric internal loop
C1q (printed Clq) = C1q (printed Clq) (Homo sapiens, UniProt P02745;P02746;P02747 P02745:23-245,P02746:28-253,P02747:29-245); assay: filter; specificity control, like random RNA; TBSC; conditions: chain copies: 6
Chain of C1q (printed Clq) (P02745 23-245, chain 1 of 3): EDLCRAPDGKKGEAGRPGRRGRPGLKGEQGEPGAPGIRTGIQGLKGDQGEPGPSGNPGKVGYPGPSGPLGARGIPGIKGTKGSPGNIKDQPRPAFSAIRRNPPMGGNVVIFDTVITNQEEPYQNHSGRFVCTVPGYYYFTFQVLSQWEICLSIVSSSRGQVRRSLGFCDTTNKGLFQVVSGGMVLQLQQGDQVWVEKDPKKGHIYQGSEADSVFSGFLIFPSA
Chain of C1q (printed Clq) (P02746 28-253, chain 2 of 3): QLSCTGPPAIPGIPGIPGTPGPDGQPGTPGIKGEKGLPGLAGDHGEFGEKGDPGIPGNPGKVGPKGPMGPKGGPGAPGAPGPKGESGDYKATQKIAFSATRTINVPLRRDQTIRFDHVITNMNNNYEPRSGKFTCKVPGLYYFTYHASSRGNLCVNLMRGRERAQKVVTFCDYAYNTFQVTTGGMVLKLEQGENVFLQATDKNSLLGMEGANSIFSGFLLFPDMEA
Chain of C1q (printed Clq) (P02747 29-245, chain 3 of 3): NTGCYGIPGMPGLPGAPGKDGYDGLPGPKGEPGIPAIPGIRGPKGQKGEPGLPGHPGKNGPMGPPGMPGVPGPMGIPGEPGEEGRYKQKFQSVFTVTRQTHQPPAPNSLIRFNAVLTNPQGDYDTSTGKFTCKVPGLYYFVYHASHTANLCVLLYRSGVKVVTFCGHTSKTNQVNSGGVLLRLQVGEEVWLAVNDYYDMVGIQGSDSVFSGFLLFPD
Description: as §3, §5

[15] = biological target: T1, secretory phospholipase A2 (sPLA2); assay: filter; Table V prints 0.4 nM; TBSC, 37 C; conditions: tags: supplied by Eli Lilly
[16] = biological target: T1, secretory phospholipase A2 (sPLA2); assay: filter; biphasic, Kd2 250 nM, mole fraction 0.30; TBSC, 37 C; conditions: tags: supplied by Eli Lilly
Description: as §1, §2

[17] = hairpin with asymmetric internal loop

B1: 93 (ssRNA)
RNA: GGGAGCUCAGAAUAAACGCUCAACAGCCAAUGUGUCCCGUACGGCGUAUCCUAUUCGACAUGAGGCCCGGAUCCGGC
B1 gave a Kd [1] of 17.2 nM.

B2: 95 (ssRNA)
RNA: GGGAGCUCAGAAUAAACGCUCAACGCUGGAUACCAUCGCACGGCGUAUCCUGCUUCGACAUGAGGCCCGGAUCCGGC
In the case of B2, the Kd [2] is reported as 4.5 nM.

B3: 72 (ssRNA)
RNA: GGGAGCUCAGAAUAAACGCUCAAGACCUCUGCUUACAGCCCGGCUGAGACACUUCGACAUGAGGCCCGGAUCCGGC
B3 showed a Kd [3] of 29000 nM, a Kd [4] of 180 nM and a Kd (lysozyme (egg white)) of 1500 nM. It also gave a Kd [5] of 0.5 nM.

B4: 85 (ssRNA)
RNA: GGGAGCUCAGAAUAAACGCUCAAAUUGCAUCAUGUACCGCAAGACGUAUUCUAUUCGACAUGAGGCCCGGAUCCGGC
B4 was tested, and the Kd [6] was 3.8 nM.

B5: 54 (ssRNA)
RNA: B4 RNA with C40U
In the case of B5, the Kd [7] is reported as 16.6 nM.

B6: 18 (ssRNA)
RNA: B4 RNA with U26C
B6 was tested, and the Kd [8] was 5 nM.

B7: 87.5 (ssRNA)
RNA: GGGAGCUAUAAACGCAGCUCUGGGAUGAUGCCCACUGUCCAGCAUCUUCGACAUG
With B7 the Kd [9] was 3.1 nM.

B8: NN27 (ssRNA)
RNA: GGGAAAAGCGAAUCAUACACAAGACCGGCCGGGGAAACCCGAGGUCCGAUGUAACGCAUGGCGCCUCACCGAGUCGCUCCGCCAGAGACCAACCGAGAA
modifications: 2'-NH2 all C and U
B8 was tested, and the Kd [10] was 0.4 nM.

B9: 60 (orphan) (ssRNA)
RNA: GGGAGCUCAGAAUAAACGCUCAAACAACGGCCCACACGGGAGAUCCGAGAAAAGUUCGACAUGAGGCCCGGAUCCGGC
For B9, the Kd [11] was 0.3 nM.

B10: 1 (orphan) (ssRNA)
RNA: GGGAGCUCAGAAUAAACGCUCAAGCCGAACCGAAUGGAGGUGGAGGGAUUGCGUUCGACAUGAGGCCCGGAUCCGGC
For B10, the Kd [12] was 1.4 nM.

B11: NN19 (ssRNA)
RNA: GGGAAAAGCGAAUCAUACACAAGACCGGCCGGCGCCAUAGCCGAGAUCCGAGGUGUUGAACGAUAACUCGGUGCUCCGCCAGAGACCAACCGAGAA
modifications: 2'-NH2 all C and U
B11 showed a Kd [13, 17] of 210 nM, a Kd (neutrophil elastase; [17]) of 40 nM and a Kd [14] of 0.4 nM.

B12: NN19.15 (ssRNA)
RNA: GGGAAAAGAAGACCGGCCGGCGCCAUAGCCGAGAUCCGAGGUGUUGCCGAGAA
modifications: 2'-NH2 all C and U
For B12, the Kd (C1q (printed Clq)) was 1000 nM, the Kd [13] was 165 nM and the Kd (neutrophil elastase) was 40 nM. The Kd [15] was 1.7 nM.

B13: 87.7 (ssRNA)
RNA: GGGAGCUCAGAAUAAACGCUCAAGCUCUGGGAUGAUGCCCACUGUCCAGCAUCUUCGACAUGUGUAGCUAAACAGCUUUAGGA
B13 showed a Kd [16] of 0.8 nM.
